Results published in US20150259384A1.

Experiments:
[1] = biological target: Human Rb construct (residues 53-787, delta245-267, delta582-642, S780A), phosphorylated with recombinant Cdk (human) (UniProt P06400); experiment: isothermal titration calorimetry; E2F (~1 mM) titrated into ~50 uM phosphorylated Rb
[2] = biological target: Human Rb construct (residues 53-787, delta245-267, delta582-642, S780A), un-phosphorylated (human) (UniProt P06400); experiment: isothermal titration calorimetry; E2F (~1 mM) titrated into ~50 uM un-phosphorylated Rb
[3] = biological target: Phosphorylated human Rb construct (residues 53-787, delta245-267, delta582-642, S780A) saturated with the … peptide (human) (UniProt P06400); experiment: isothermal titration calorimetry; E2F (~1 mM) titrated into ~50 uM phosphorylated Rb first saturated with the … peptide
Sequence of Phosphorylated human Rb construct (residues 53-787, delta245-267, delta582-642, S780A) saturated with the … peptide (human) (P06400 other isoform, or with tags, fused parts or gaps S780A S780A limits assumed): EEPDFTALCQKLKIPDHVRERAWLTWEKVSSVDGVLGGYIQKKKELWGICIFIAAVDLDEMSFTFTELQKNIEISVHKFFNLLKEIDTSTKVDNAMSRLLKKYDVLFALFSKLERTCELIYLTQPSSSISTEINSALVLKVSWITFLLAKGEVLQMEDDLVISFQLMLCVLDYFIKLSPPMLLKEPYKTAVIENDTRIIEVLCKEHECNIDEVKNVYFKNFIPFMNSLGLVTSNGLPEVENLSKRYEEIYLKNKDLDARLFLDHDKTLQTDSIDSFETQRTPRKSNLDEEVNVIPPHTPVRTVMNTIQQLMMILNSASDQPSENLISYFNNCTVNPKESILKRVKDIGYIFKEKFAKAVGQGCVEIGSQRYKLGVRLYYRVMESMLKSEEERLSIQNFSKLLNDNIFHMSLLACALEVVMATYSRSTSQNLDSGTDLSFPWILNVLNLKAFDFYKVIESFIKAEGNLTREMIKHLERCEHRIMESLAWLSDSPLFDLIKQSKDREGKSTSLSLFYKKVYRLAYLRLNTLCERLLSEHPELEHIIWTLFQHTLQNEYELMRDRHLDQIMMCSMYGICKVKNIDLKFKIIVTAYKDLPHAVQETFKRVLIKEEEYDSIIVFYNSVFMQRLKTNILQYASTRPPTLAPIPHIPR

Sequence of Human Rb construct (residues 53-787, delta245-267, delta582-642, S780A), un-phosphorylated (human) (P06400 other isoform, or with tags, fused parts or gaps S780A S780A limits assumed): as above
Sequence of Human Rb construct (residues 53-787, delta245-267, delta582-642, S780A), phosphorylated with recombinant Cdk (human) (P06400 other isoform, or with tags, fused parts or gaps S780A S780A limits assumed): as above

## Human E2F1 transactivation domain (residues 380-727) (from UniProt Q01094 380-437)
[1]
  Kd: 3000 nM
[2]
  Kd: 100 nM
[3]
  Kd: 700 nM
